Results on 23 molecules are retold here after patent US20110136733A1 (IPSEN PHARMA S A S, published 2011).

The test addresses T1, human recombinant GIP receptor (human, UniProt P48546 22-466).
T1 construct: whole, on cells; Membranes of CHO-K1 cells expressing the receptor; also called hGIP receptor
T1 sequence (looked up): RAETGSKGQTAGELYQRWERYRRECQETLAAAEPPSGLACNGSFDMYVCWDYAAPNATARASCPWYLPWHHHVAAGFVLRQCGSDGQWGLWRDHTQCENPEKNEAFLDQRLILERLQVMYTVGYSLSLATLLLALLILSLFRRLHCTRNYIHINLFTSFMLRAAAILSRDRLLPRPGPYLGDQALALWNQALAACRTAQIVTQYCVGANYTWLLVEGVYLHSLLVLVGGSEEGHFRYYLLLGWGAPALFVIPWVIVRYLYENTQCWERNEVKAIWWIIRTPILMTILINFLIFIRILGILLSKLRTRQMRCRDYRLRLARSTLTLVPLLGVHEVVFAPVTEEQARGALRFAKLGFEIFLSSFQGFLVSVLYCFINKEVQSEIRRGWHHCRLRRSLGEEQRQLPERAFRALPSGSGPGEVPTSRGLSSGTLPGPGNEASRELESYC
In words: [125I]GIP competition, membranes of CHO-K1 cells expressing human GIP receptor.

Where no end group is shown, it is not given here. [ ]: non-standard residue; d: D form. Aib = CC(C)(N)C(=O)O

“(Pro^3, A5c^11, Nle^14)hGIP(1-30)-OH (peptide)”: the inhibition constant Ki is 86.8 nM. As for YXEXTFISDYSIAMDKIHQQDFVNWLLAQK (Aib at 2 and 4; C-terminal amide) [(Aib^2, 4)hGIP(1-30)-NH2], the figure is 107 nM; as for YXEGTFISDYSXAMDKIHQQDFVNWLLAQK (Aib at 2 and 12; C-terminal amide) [(Aib^2, 12)hGIP(1-30)-NH2], 1.84 nM; as for YXEGXFISDYSIAMDKIHQQDFVNWLLAQK (Aib at 2 and 5; C-terminal amide) [(Aib^2, 5)hGIP(1-30)-NH2], 3.33 nM. For YXEGXFISDYSIAMDKIHQQDFVNWLLAQK (Aib at 2; A5c at 5; C-terminal amide) [(Aib^2, A5c^5)hGIP(1-30)-NH2], the inhibitory constant (Ki) came to 2.05 nM.

As for YXEGTFISDYXIAMDKIHQQDFVNWLLAQK (Aib at 2 and 11; C-terminal amide) [(Aib^2, 11)hGIP(1-30)-NH2], the Ki is 0.37 nM.

Take YXPGTFISDYXIAMDKIHQQDFVNWLLAQK (Aib at 2; A5c at 11; C-terminal amide) [(Aib^2, Pro^3, A5c^11)hGIP(1-30)-NH2]: the Ki worked out at 216 nM. Take YXEGTFXSDYSIAMDKIHQQDFVNWLLAQK (Aib at 2 and 7; C-terminal amide) [(Aib^2, 7)hGIP(1-30)-NH2]: the Ki came to 0.53 nM. Then Y[Aib]E[Aib]TFISDYSIAMDKIHQQDFVNWLLAQKGKKNDWKHNITQ-OH [(Aib^2, 4)hGIP(1-42)-OH], with 80.1 nM; and YAEGTFISDYXIAMDKIHQQDFVNWLLAQKH (D-Ala at 2; A5c at 11; C-terminal amide, X stands for the non-natural residue) [(D-Ala^2, A5c^11, His^31)hGIP(1-31)-NH2], with 0.87 nM; and YXEGTFIXDYSIAMDKIHQQDFVNWLLAQKGKKNDWKHNITQ (Aib at 2 and 8; C-terminal free acid) [(Aib^2, 8)hGIP(1-42)-OH], with 16.2 nM. As for YXEGTFISDYXIAMDKIHQQDFVNWLLAQKGKKNDWKHNITQ (Aib at 2 and 11; C-terminal free acid) [(Aib^2, 11)hGIP(1-42)-OH], the figure is 1.2 nM; as for YXEGTFXSDYSIXXDKIHQQDFVNWLLAQKGKKNDWKHNITQ (Aib at 2 and 13; A6c at 7; Nle at 14; C-terminal free acid) [(Aib^2, 13, A6c^7, Nle^14)hGIP(1-42)-OH], 0.3 nM. Then YXEGTFIXDYSIAMDKIHQQDFVNWLLAQK (Aib at 2 and 8; C-terminal amide) [(Aib^2, 8)hGIP(1-30)-NH2], with 15.9 nM; and YAPGTFISDYXIAXDKIHQQDFVNWLLAQK (A5c at 11; A6c at 14; C-terminal amide) [(Pro^3, A5c^11, A6c^14)hGIP(1-30)-NH2], with 871 nM. As for YAEGTFISDYXIAXDKIHQQDFVNWLLAQK (D-Ala at 2; A5c at 11 and 14; C-terminal amide, X stands for the non-natural residue) [(D-Ala^2, A5c^11, 14)hGIP(1-30)-NH2], the Ki amounted to 0.46 nM. Then YXEGTFXSDYSIAMDKIHQQDFVNWLLAQK (Aib at 2; A5c at 7; C-terminal amide) [(Aib^2, A5c^7)hGIP(1-30)-NH2], with 0.27 nM; and YXPGTFXSDYSIAMDKIHQQDFVNWLLAQK (Aib at 2; A6c at 7; C-terminal amide) [(Aib^2, Pro^3, A6c^7)hGIP(1-30)-NH2], with 333 nM; and YGEGTFISDYXIAXDKIHQQDFVNWLLAQKGKKNDWKHNITQH (A5c at 11; Nle at 14; C-terminal free acid) [(Gly^2, A5c^11, Nle^14, His^43)hGIP(1-43)-OH], with 0.87 nM. YXEGTFISDYXIAXDKIHQQDFVNWLLAQKGKKNDWKHNITQH (Aib at 2; A5c at 11 and 14; C-terminal free acid) [(Aib^2, A5c^11,14, His^43)hGIP(1-43)-OH]: the Ki was 0.55 nM. Then YAEGTFISDYXIAXDKIHQQDFVNWLLAQKGKKNDWKHNITQH (D-Ala at 2; A5c at 11; Nle at 14; C-terminal free acid, X stands for the non-natural residue) [(D-Ala^2, A5c^11, Nle^14, His^43)hGIP(1-43)-OH], with 0.66 nM; and YXEGTFISXYSIAMDKIHQQDFVNWLLAQK (Aib at 2 and 9; C-terminal amide) [(Aib^2, 9)hGIP(1-30)-NH2], with 5.38 nM. Take YXEGTFISDYSXAMDKIHQQDFVNWLLAQK (Aib at 2; A5c at 12; C-terminal amide) [(Aib^2, A5c^12)hGIP(1-30)-NH2]: the inhibition constant (Ki) is 0.98 nM.
